Measured values published in US20080267967A1 (TRILLIUM THERAPEUTICS, published 2008).

T1: murine CD200R3a (murine, UniProt Q5UKY4 26-272)
T1 sequence: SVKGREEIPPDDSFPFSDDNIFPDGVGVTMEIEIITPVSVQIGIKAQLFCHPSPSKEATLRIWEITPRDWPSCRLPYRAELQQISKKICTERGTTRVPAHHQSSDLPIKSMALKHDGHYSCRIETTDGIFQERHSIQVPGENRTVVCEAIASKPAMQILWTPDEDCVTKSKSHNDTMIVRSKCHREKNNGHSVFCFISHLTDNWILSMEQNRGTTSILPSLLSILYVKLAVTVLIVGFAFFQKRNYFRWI

T2: murine CD200R2a (murine, UniProt Q6XJV6 25-249)
T2 sequence: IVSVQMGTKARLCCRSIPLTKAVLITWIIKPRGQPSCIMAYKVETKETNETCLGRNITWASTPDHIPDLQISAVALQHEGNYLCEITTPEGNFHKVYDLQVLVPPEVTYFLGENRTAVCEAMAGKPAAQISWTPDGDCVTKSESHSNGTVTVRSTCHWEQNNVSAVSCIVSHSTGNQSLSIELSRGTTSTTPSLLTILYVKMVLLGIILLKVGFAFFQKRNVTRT

T3: CD200 receptor (CD200R) on primary mouse cells, isoform not stated (mouse) (UniProt Q9ES57)
T3 sequence: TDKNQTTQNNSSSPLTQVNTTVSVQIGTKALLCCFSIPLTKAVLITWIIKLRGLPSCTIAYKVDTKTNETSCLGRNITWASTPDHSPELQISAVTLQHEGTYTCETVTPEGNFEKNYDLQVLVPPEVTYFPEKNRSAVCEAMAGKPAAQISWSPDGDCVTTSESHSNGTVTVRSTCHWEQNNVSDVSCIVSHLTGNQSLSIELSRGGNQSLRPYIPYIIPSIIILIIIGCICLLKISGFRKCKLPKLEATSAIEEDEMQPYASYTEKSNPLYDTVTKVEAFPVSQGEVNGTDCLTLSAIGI


Experiments:
[1] = target: T1, murine CD200R3a; experiment: FACS, FITC-CD200Fc on COS cells transiently transfected with CD200R isoform cDNA
From the text: (§1) In order to assess whether the various CD200R isoforms described could all serve as counter-igands for CD200, an immunoadhesin (CD200Fc) incorporating the extracellular domain of CD200 linked to a murine IgG2a Fc region as described (51) was used. CD200Fc was coupled to FITC and the inventors then examined by FACS analysis binding of FITC-labeled CD200Fc to COS cells transiently transfected with pBK vectors encoding cDNAs for the various CD200R isoforms. As control the inventors examined binding to COS cells transduced with empty pBK vectors. COS cells expressing the different CD200R isoforms all bound FITC-CD200Fc.

[2] = target: T2, murine CD200R2a; experiment: as above
From the text: as §1

[3] = target: T3, CD200 receptor (CD200R) on primary mouse cells, isoform not stated (mouse); experiment: cell-based or functional assay

Binder | binding result [1] | binding result [2] | IFNγ in MLC at 40 hrs; CD200R+ cells + CD200+ DC [3] [ng/mL] | IFNγ in MLC; CD200R+ cells + CD200+ DC, no mAb [3] [ng/mL] | IL-2 in MLC at 40 hrs; CD200R+ cells + CD200+ DC [3] [ng/mL] | IL-2 in MLC; CD200R+ cells + CD200+ DC, no mAb [3] [ng/mL] | IL-4 in MLC at 40 hrs; CD200R+ cells + CD200+ DC [3] [ng/mL] | IL-10 in MLC at 40 hrs; CD200R+ cells + CD200+ DC [3] [ng/mL]
CD200Fc immunoadhesin (extracellular domain of CD200 linked to a murine IgG2a Fc region) (Fc fusion, mouse, UniProt O54901 31-232, looked up, FITC-labelled in the binding assays, extracellular domain; Made in a baculovirus system in Sf insect cells; also called FITC-CD200Fc; FITC-CD200:Fc; not shown: murine IgG2a Fc region; the ch) QVEVVTQDERKALHTTASLRCSLKTSQEPLIVTWQKKKAVSPENMVTYSKTHGVVIQPAYKDRINVTELGLWNSSITFWNTTLEDEGCYMCLFNTFGSQKVSGTACLTLYVQPIVHLHYNYFEDHLNITCSATARPAPAISWKGTGTGIENSTESHFHSNGTTSVTSILRVKDPKTQVGKEVICQVLYLGNVIDYKQSLDKG | binds | binds | – | – | – | – | – | –
mouse CD200 on dendritic cells (ligand, UniProt O54901 31-278, looked up) QVEVVTQDERKALHTTASLRCSLKTSQEPLIVTWQKKKAVSPENMVTYSKTHGVVIQPAYKDRINVTELGLWNSSITFWNTTLEDEGCYMCLFNTFGSQKVSGTACLTLYVQPIVHLHYNYFEDHLNITCSATARPAPAISWKGTGTGIENSTESHFHSNGTTSVTSILRVKDPKTQVGKEVICQVLYLGNVIDYKQSLDKGFWFSVPLLLSIVSLVILLVLISILLYWKRHRNQERGESSQGMQRMK | – | – | 0.145 | 0.17 | 0.16 | 0.165 | 0.255 | 0.225
